Measured values reported in the RNAGym collection of RNA variant scans (doi:10.7554/elife.80360).

B1: HDV Ribozyme (parent)
chain: GGCCGGCAUGGUCCCAGCCUCCUCGCUGGCGCCGGCUGGGCAACAUUCCGAGGGGACCGUCCCCUCGGUAAUGGCGAAUGGGACCCA

Variants of: B1
Assay: self-cleavage, relative activity (ratio to wild type); higher = more cleavage; co-transcriptional

Variant	self-cleavage
GGCCGGCAUGCUCCCAGCCUCCUCGCUGGCGCCGGCUGGGCAACAUACCGAGGGGACCGUCCCCUCGGUAAUGGCGAAUGGGACCCA	0.151
GGCCGGCAUGUUCCCAGCCUCCUCGCUGGCGCCGGCUGGGCAACAUUCCGAGGGGACCGUCCCCUCGGUAAUGGCGAUUGGGACCCA	0.0755
GGCCGGCAUGCUCCCAGCCUCCUCGCUGGCGCCAGCUGGGCAACAUUCCGAGGGGACCGUCCCCUCGGUAAUGGCGAAUGGGACCCA	0.108
GGCCGGCAUGCUCCCAGCCUCCCCGCUGGCGCCGGCUGGGCAACAUUCCGAGGGGACCGUCCCCUCGGUAAUGGCGAAUGGGACCCA	0.277
GGCCGGCAUGUUCGCAGCCUCCUCGCUGGCGCCGGCUGGGCAACAUUCCGAGGGGACCGUCCCCUCGGUAAUGGCGAAUGGGACCCA	0.0692
GGCCGGCAUGUUCUCAGCCUCCUCGCUGGCGCCGGCUGGGCAACAUUCCGAGGGGACCGUCCCCUCGGUAAUGGCGAAUGGGACCCA	0.406
GGCCGGCAUGCUCCCAGCCUCCUCGCUGGCGCCGGCUGGGCAACAUUCCGACGGGACCGUCCCCUCGGUAAUGGCGAAUGGGACCCA	0.266
GGCCGGCAUGUUCCCAGCCUCCUCGCUGGCGCCGGCUGGGCAUCAUUCCGAGGGGACCGUCCCCUCGGUAAUGGCGAAUGGGACCCA	0.0893
GGCCGGCAUGUUCCCAGCCUCCUCGCUGGCGCCGGCUGGGCAACAUUCAGAGGGGACCGUCCCCUCGGUAAUGGCGAAUGGGACCCA	0.307
GGCCGGCAUGUUCCCAGCCUACUCGCUGGCGCCGGCUGGGCAACAUUCCGAGGGGACCGUCCCCUCGGUAAUGGCGAAUGGGACCCA	0.0329
GGCCGGCAUGCUCCCAGCCUCCUCGCUGGCGCCGGCUGGGCAACAUUCGGAGGGGACCGUCCCCUCGGUAAUGGCGAAUGGGACCCA	0.0504
GGCCGGCAUGCUCCCAGCCUCCUCGCUGGCGCCGGCUGGGCAACAUUCCGAGGGGACCAUCCCCUCGGUAAUGGCGAAUGGGACCCA	0.434
GGCCGGCAUGCUCCCAGCCUCCUCGCUGGCGCCGGCUGGGCAACAUUCCGAGGGGACCGUCCCCUCGGUAAGGGCGAAUGGGACCCA	0
GGCCGGCAUGCUCCCAGCCUCCUCGCUGGCGCCGGCUGGGCAACAUUCCGAGGGGACCGUCCCCUCGGUAACGGCGAAUGGGACCCA	0.119
GGCCGGCAUGCUCCCAGCCUCCUCGCUGGCGCCGGCUGGGCAACAUUCCGAGGGGACCGUCCCCUCGGUAAUGACGAAUGGGACCCA	0.117
GGCCGGCAUGUUCCCAGCCUCCUCGCUGGCGCCGGCUGGGCAACAUUCCGAGGGGACCGUCCCCUCGGUAAUGGCGAAUGGGACCCC	0.415

Variant	self-cleavage
GGCCGGCAUGUUCCUAGCCUCCUCGCUGGCGCCGGCUGGGCAACAUUCCGAGGGGACCGUCCCCUCGGUAAUGGCGAAUGGGACCCA	0.258
GGCCGGCAUGUUCCAAGCCUCCUCGCUGGCGCCGGCUGGGCAACAUUCCGAGGGGACCGUCCCCUCGGUAAUGGCGAAUGGGACCCA	0.155
GGCCGGCAUGUUCCCAGCCUCCUCGCUGGCGCCGGCUGGGCAAUAUUCCGAGGGGACCGUCCCCUCGGUAAUGGCGAAUGGGACCCA	0.193
GGCCGGCAUGUUCCCAGCCUCCUCGCUGGCGCCGGCUGGGCAAGAUUCCGAGGGGACCGUCCCCUCGGUAAUGGCGAAUGGGACCCA	0.0723
GGCCGGCAUGUUCCCAGCCUCCUCGCUGGCGCCGGCUGGGCAAAAUUCCGAGGGGACCGUCCCCUCGGUAAUGGCGAAUGGGACCCA	0.256
GGCCGGCAUGCUCCCAGCCUCCUCGCUGGCGCCGGCUGGUCAACAUUCCGAGGGGACCGUCCCCUCGGUAAUGGCGAAUGGGACCCA	0.189
GGCCGGCAUGCUCCCAGCCUCCUCGCUGGCGCCGGCUGGGCAACAUUCCGAGGGGACCGUCCCCUCGGUAAUGGCGAAUGGGAUCCA	0.18
GGCCGGCAUGUUCCCAGCCUCCUCGCUGGCGCCGGCUGGGCAACAUUCCGAGGGGACCGUCCCCUCGGUAAUGGCGCAUGGGACCCA	0.0652
GGCCGGCAUGUUCCCAGCCUCCUCGCUGGCGCCGGCUGGGCAACAUUCCGAGGGGACCGUCCCCUCGGUAAUGGCGUAUGGGACCCA	0.0906
GGCCGGCAUGCUCCCAGCCUCCUCGCUGGCGCCGGCUGUGCAACAUUCCGAGGGGACCGUCCCCUCGGUAAUGGCGAAUGGGACCCA	0
GGCCGGCAUGCUCCCAGCCUCCUCGCUAGCGCCGGCUGGGCAACAUUCCGAGGGGACCGUCCCCUCGGUAAUGGCGAAUGGGACCCA	0.0225
GGCCGGCAUGUUCCCAGCCUCCUCGCUGGCGUCGGCUGGGCAACAUUCCGAGGGGACCGUCCCCUCGGUAAUGGCGAAUGGGACCCA	0.215
GGCCGGCAUGUUUCCAGCCUCCUCGCUGGCGCCGGCUGGGCAACAUUCCGAGGGGACCGUCCCCUCGGUAAUGGCGAAUGGGACCCA	0.0674
GGCCGGCAUGCUCCCAGCCUCCUCGCUGGCGCCGGCUGGGCAACAUUCCUAGGGGACCGUCCCCUCGGUAAUGGCGAAUGGGACCCA	0.54
GGCCGGCAUGCUCCCAGCCUCCUCGCUGGCGCCGGCUGGGCAACAUUCCAAGGGGACCGUCCCCUCGGUAAUGGCGAAUGGGACCCA	0.271
GGCCGGCAUGCUCCCAGCCUCCUCGCUGGCGCCGGCUUGGCAACAUUCCGAGGGGACCGUCCCCUCGGUAAUGGCGAAUGGGACCCA	0.0845
